# Data reported in publication PMC11087588, “Genetic and functional diversity of β-N-acetylgalactosamine-targeting glycosidases expanded by deep-sea metagenome analysis” (Nature Communications, 2024).
# B1: NgaBa (Bathyarchaeia (SeqCode)) (protein)
# chain: MSRFDVWVQDSLTKVFRDSPKPEDAIKDVVLDAVRNEYEAAQIVVHPLEDVERLEVRVTSLRHESDEYAITRVYPRFVGYVPVKRNTPDTPPEELVRKAPGMFPDPLLEEETVRVKKGENQPVWLTVYVPKDAPPGTYHGEVLIRADGDETRVKTCLRVHDVILPDERNLKLSNFLSPHNISKFHGVELWSEDFWRLLKAYARNMAEHRQSSIITPILELTRIYKGDDRLEFDFRLLDRWINLFKEEGVIGTVEGGYLAGRPPRTVEGWWTVSEFLSRRYRVFNKDGSLAYVQEPVKVSSPVFEEFISQFMPALQAHLDELGLLDSYVQHLADEPIDANAESYKHIAGLVRKYAPKIRIIEASTCKRLVDYIDVLVPLLDDYDKNMSFYEERKRRGNEVWFYTCLAPTGRYPNRLIDYSLVKVRILHWINFKYGLVGYLHWGYNYWTEKPFEDVENEPSHPFPLPPGDPFIVYPGKSGPLDSIRFEALRDGVEDYELFKLLAERKGLDEAVGLCSLAVKTITDYVRSSGELLSIRLRLINELESLG
# notes: synthetic gene, pET-47b(+), E. coli BL21 Star (DE3); His tag cut with HRV3C; monomer
# B2: NgaAt (Arabidopsis thaliana) (protein)
# chain: MDNNVSQEMTVPVEGVAGGGTAYGFNDAEPLKQSTDPSEVPTADLVNVWCMPNTVNVGSQETPRALEPINLLAARNERESFQIAMRPKVSWAASSPSGIVQVQCSDLCSSAGDRLVVGQSLKLRRVVPVLGVPDALVPLDLPVSQLSLFPGETSVIWVSIDVPTGQPPGQYEGEIIISAMKTDGGGSSHLAKHEKDQLCVELNTCLDIMEPIEGKPMDEVVERIKCASSSLRRILFSPSFSEFISTNGSTDMMEEDVVSNLSLRIKLRLTVWEFIIPVTPSLPAVIGVSDTVIEDRFAVEHGSEDWYKKLDLHFKWLLQYRISPYFCKWGESMRVLTYTSPWPADHPKSDEYLSDSRLAAYAVPYRQVIAGDDSRESYLRKEVEILRSKPHWNKAYFYLWDEPLNMEHFDNVRKMASEIYAYAPDSRVLTTYYCGPGDAPLAPTPFESFVKVPNLLRPYTQIYCTSEWVLGNREDLVKDILDELQTENGEEWWTYICLGPSDPHPNWHLGMRGTQQRAVMWRVWKEGGTGFLYWGANCYEKATVPSAEVKFRRGLPPGDGVLYYPGEVFSSSSEPVASLRLERLLSGLQDYEYLKLYESKYGREEAMGLLEKTGVYTGPERYTLEHRPIDVLRGEVYNTCRPS
# notes: synthetic gene, pET-47b(+), E. coli BL21 Star (DE3); His tag cut with HRV3C; monomer; extra N-terminal domain of ~80 residues disordered in crystal
# B3: NgaBf (Brachybacterium faecium DSM 4810) (protein)
# chain: MQTVLTDSLEKVLGESAPRPAAPIGGAHASGFLGEVLSVQVALRAEEGEAPDPRSAEHAALRVRLGGEIADSARVHAVRRVPVSSPAPAEADEHYLATAPGEYPDLLEPLGGEEVRVGRGLWEALWIDVIDAPPGEHTLTLALTDTTGEQVLAEHAVQLRVHPHQLPPLSITNTHWFHADSLSTYYDVEVLSPQHWELIEAFLASAREMDVTSVLTPTWTPPLDTAEGHTRPFVQLIGIREEEGEYSFDLSALDRWLEICGRLGFTGIEIAHLFTQWGARSTPAIQVETGSGLEHRFGWHVPATSPEYRRLLEALIPVLRAHLEEHWDGQVLWHISDEPHEDQLDSYRAAKEQVADLLEGAQVVDALSSLAFAEQGVVDTPIVATSHVGPFLEAGRRPWVYYCVSQNRDVANRFIAQPSVRNRVLGRQLFAFDAPGFLHWGYNFWWAQFSLRPIDPFEETCAGGPFFGGDSFAVYPGPEGTPWLSLRHRVFAQAMADHRALTWLAELTDRPSAVALVDEGGTLTYSSFSYDVHAHLEARHAVDERIRAALAA
# notes: as for B1
# B4: NgaLy (Lacticaseibacillus yichunensis) (protein)
# chain: MDYQIDLVDPLTKVFADEVPDAWVVATQMVLQGEPLVLQLAYQRLRDDDASFSELTLATSLSAQCFEINQVPSQLPTWPHPDARYLRTTPGLFPDLLTPLTGPVRAYHGQVRALWLKIPTESLTPGSYELTITLTETASGQVVFSQTVPLTVAAAVAQPPRLHHTEWFSVDCLADYYHEAPYTPRLWAIIGNFMVFAHDEALMDTLLTPIFTPPLDTAVGATRTNVQLVQILPGTPYRFDWSRLRKWCQLAQQSGFAYLEMPPLFTQWGAQATPTITDTAGTALFGWHVPSTAPAYRAFLQALLPQLLAVLAEEGYDRDHLFFHLADEPNASTEDGYRAARAQVADLLDGLQVIDALSDVRFYENGLVPHPVVADDALAPFLAADAAPLWTYYCCAQTTAVPNRFFALRSYDNRVLGVLLYRHQIQGFLHWGFNFYNAQLSTRPIDPFAVTDAGGAFPSGDPFLVYPGADGQPLNSLRNEVQRLGFGDLAVLQQLEALKGRPFVERLIDVTAGMVPQFDDYPPDAGWLTRLHEKAVATLAAAAPAHKKE
# notes: synthetic gene, pET-47b(+), E. coli BL21 Star (DE3); His tag cut with HRV3C; monomer; DE motif D327/E328
# B5: NgaP2 (Paenibacillus sp. TS12) (protein)
# chain: LIRWSQVDEEGDTIMLEELPDFETRCLSSLSKVFADAELHDLPVNTGSAMWKEVFSFQVAYRSPQLIKSLKISAESELEPYLAIRAVGLSPSELPVFPNPDEGYIRTAPGLYPDPLYPLADGVHAVPNQWRSVWVTVSLPSMSEFIPAADIGAESVSFPIDLCFEDGKGNHLGAEKFALEIIFQELPEQTLLHTEWFHSDCIATQYKVEVFSEAHWKLIESYVHNAVNHGVNMLLTPLFTPPLDTYVGGERPTVQLIDVEITGVNEYRFKFDRLERWVEMCQRLGIQFIEFSHLFTQWGAKYAPKIIAKKDGEEKRIFGWDTEASGESYSLFLDQFLPQLVHFIRNHHLDDKVFFHVSDEPGMKHAESYRQASDILNKHLAGFSILDALSDYDFYEKGLVQIPVPSNDQIEPFIEHGVEPLWTYYCCGQDHHVSNRFFSLSSPRNRVLGAQLYKFGVQGFLHWGFNFWYSQYSKKVIDPFKVTDADCAFPSGDPFVVYPGADGPLDSIRWEVFREGLQDLRALKLLEALAGREKTLALLEQNLREELTFKSFPDDIEWLLSTREKINRAIKDAYRADR
# notes: cloned from genomic DNA, pET-47b(+), E. coli BL21 Star (DE3); His tag cut with HRV3C; monomer; not the GH123 NgaP of the same strain
# B6: NgaCa (Cohnella abietis) (protein)
# chain: MANTQKTLSLSVWTASSQERVRQDDPAGESLNIELFAARGEYESFQVALKAPEGEHRNVHFVVSDLKGTGDSFISKSNLTLYREHYVYISESSPQRGTVLPEGPGWYPDALIPFIDPATNEPPSGGELIAVPFALENNSNQVIWVDIQVPRDAEAGHYSGSYIVSSEHGEVTGQISLTVWNFELPLKPSLKSTFLIWSSRKKSTVEELLKHKLMCQQWNLSEEEKGAAPTSEGEWIEKYGVNCSGLGFWSKADTFNGVMPPPPTVEEIQAAASAHPSNLFLYNYTADEIGHYTSLYEPIKAWARNLHEAGVANLITMAPVPELYDDGSGSGRSAVDIWVILPLQYDKDRIQEVLAKGDEVWSYNCCVQDDYSPKWQIDFNPIEYRIQPGFINQSLGMTGILYWRVDFWTEDPWHDVLTLRADGMEFNGEGMLVYPGEQVGIDGVVPSIRLKAIRKGIEDYEYIEILKNLGHEQWALEISQSVGPDWHNWTKDHHKLEWARKQLGERINDLMTK
# notes: as for B1
# What was measured:
# NgaLy [1] = molecular target: T1, NgaLy (Lacticaseibacillus yichunensis, UniProt A0ABW4CMK8, Y392A); test: relative activity versus wild type; assay type: biochemical; conditions: substrate taken from the standard assay (Assay I)
# T1 construct: gene ACFQ47_05640; synthetic gene, pET-47b(+), E. coli BL21 Star (DE3); His tag cut with HRV3C; monomer; DE motif D327/E328
# T1 sequence (A0ABW4CMK8 entry or part of it Y392A): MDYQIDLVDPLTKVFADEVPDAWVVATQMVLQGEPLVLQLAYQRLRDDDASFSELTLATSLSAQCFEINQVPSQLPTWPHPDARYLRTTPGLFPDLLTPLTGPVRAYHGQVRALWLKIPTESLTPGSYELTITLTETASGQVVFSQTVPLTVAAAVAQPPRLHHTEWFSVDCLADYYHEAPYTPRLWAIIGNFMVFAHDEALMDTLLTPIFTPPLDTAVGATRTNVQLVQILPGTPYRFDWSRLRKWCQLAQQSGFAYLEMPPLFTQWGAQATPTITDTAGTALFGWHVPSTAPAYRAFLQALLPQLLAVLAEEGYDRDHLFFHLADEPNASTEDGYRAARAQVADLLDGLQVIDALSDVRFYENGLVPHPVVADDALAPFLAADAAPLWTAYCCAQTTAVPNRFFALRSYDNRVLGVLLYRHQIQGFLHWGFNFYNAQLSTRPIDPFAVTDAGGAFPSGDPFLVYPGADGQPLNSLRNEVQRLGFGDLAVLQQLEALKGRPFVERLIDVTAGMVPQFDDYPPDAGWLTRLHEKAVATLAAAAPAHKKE
# NgaLy [2] = molecular target: T2, NgaLy (Lacticaseibacillus yichunensis, UniProt A0ABW4CMK8, W431A); test: relative activity versus wild type; assay type: biochemical; conditions: substrate taken from the standard assay (Assay I)
# T2 construct: gene ACFQ47_05640; synthetic gene, pET-47b(+), E. coli BL21 Star (DE3); His tag cut with HRV3C; monomer; DE motif D327/E328
# T2 sequence (A0ABW4CMK8 entry or part of it W431A): as the sequence (A0ABW4CMK8 entry or part of it Y392A) above, with A392Y, W431A counted along it
# purified protein [3] = substrate: CC(=O)N[C@H]1[C@H](Oc2ccc([N+](=O)[O-])cc2)O[C@H](CO)[C@H](O)[C@@H]1O; test: purified protein; assay type: biochemical, Bathyarchaeia (SeqCode); conditions: citrate pH 6.5, 70 °C (optimum), apparent, not saturated up to 2 mM
# purified protein [4] = substrate: CC(=O)N[C@H]1[C@H](Oc2ccc([N+](=O)[O-])cc2)O[C@H](CO)[C@H](O)[C@@H]1O; test: purified protein; assay type: biochemical, Arabidopsis thaliana; conditions: citrate pH 5.0, 40 °C (optimum), apparent, not saturated up to 2 mM
# purified protein [5] = substrate: CC(=O)N[C@H]1[C@H](Oc2ccc([N+](=O)[O-])cc2)O[C@H](CO)[C@H](O)[C@@H]1O; test: purified protein; assay type: biochemical, Brachybacterium faecium; conditions: citrate pH 6.5, 35 °C (optimum), apparent, not saturated up to 2 mM
# purified protein [6] = substrate: CC(=O)N[C@H]1[C@H](Oc2ccc([N+](=O)[O-])cc2)O[C@H](CO)[C@H](O)[C@@H]1O; test: purified protein; assay type: biochemical, Lacticaseibacillus yichunensis; conditions: HEPES pH 7.0, 40 °C (optimum), apparent, not saturated up to 2 mM
# purified protein [7] = substrate: CC(=O)N[C@H]1[C@H](Oc2ccc([N+](=O)[O-])cc2)O[C@H](CO)[C@H](O)[C@@H]1O; test: purified protein; assay type: biochemical, Paenibacillus sp. TS12; conditions: citrate pH 5.5, 40 °C (optimum), apparent, not saturated up to 2 mM
# purified protein [8] = substrate: CC(=O)N[C@H]1[C@H](Oc2ccc([N+](=O)[O-])cc2)O[C@H](CO)[C@H](O)[C@@H]1O[C@@H]1O[C@H](CO)[C@H](O)[C@H](O)[C@H]1O; test: purified protein; assay type: biochemical, Cohnella abietis; conditions: citrate pH 5.0, 25 °C (optimum), apparent, not saturated up to 2 mM
molecule,measurement,setting,value
CC(=O)N[C@H]1[C@H](Oc2ccc([N+](=O)[O-])cc2)O[C@H](CO)[C@H](O)[C@@H]1O [GalNAc-β-pNP],relative activity versus wild type,NgaLy [1],The Y392A and W431A mutants were purified as soluble enzymes
same,relative activity versus wild type,NgaLy [2],The Y392A and W431A mutants were purified as soluble enzymes
B1,Km,purified protein [3],3.9 ± 1 mM
same,kcat,purified protein [3],510 ± 50 s⁻¹
B2,Km,purified protein [4],12 ± 5 mM
same,kcat,purified protein [4],8 ± 3 s⁻¹
B3,Km,purified protein [5],1.0 ± 0.07 mM
same,kcat,purified protein [5],170 ± 5 s⁻¹
B4,Km,purified protein [6],1.0 ± 0.05 mM
same,kcat,purified protein [6],480 ± 10 s⁻¹
B5,Km,purified protein [7],0.36 ± 0.03 mM
same,kcat,purified protein [7],28 ± 0.6 s⁻¹
B6,Km,purified protein [8],11 ± 3 mM
same,kcat,purified protein [8],1.2 ± 0.3 s⁻¹
